Results reported in publication PMC9524020 (2022).

What was measured:
Assay in all cases: SPR
[1] = target: FcγRIIIa-158V, FcγRIIIa-Hybrid (human)
[2] = target: FcγRIIIa-158V, FcγRIIIa-HEK^WT (human)
[3] = target: FcγRIIIa-158V, FcγRIIIa-Afucosylated (human)
[4] = target: FcγRIIIa-158V, FcγRIIIa-Oligomannose (human)
[5] = target: FcγRIIIa-158V, FcγRIIIa-G2FS(2-6) (human)
[6] = target: FcγRIIIa-158V, FcγRIIIa-CHO^WT (human)
[7] = target: FcγRIIIa-158V, FcγRIIIa-Monoantennae (human)
Sequence of FcγRIIIa-158V, FcγRIIIa-Monoantennae (human) (chain, as listed by the source): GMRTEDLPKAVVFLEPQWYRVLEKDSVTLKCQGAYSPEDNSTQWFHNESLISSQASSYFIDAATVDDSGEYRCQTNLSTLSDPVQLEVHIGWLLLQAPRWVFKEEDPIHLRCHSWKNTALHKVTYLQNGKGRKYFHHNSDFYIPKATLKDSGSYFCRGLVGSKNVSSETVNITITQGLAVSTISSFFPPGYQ

Sequence of FcγRIIIa-158V, FcγRIIIa-Hybrid (human) (chain, as listed by the source): as above
Sequence of FcγRIIIa-158V, FcγRIIIa-CHO^WT (human) (chain, as listed by the source): as above
Sequence of FcγRIIIa-158V, FcγRIIIa-Oligomannose (human) (chain, as listed by the source): as above
Sequence of FcγRIIIa-158V, FcγRIIIa-G2FS(2-6) (human) (chain, as listed by the source): as above
Sequence of FcγRIIIa-158V, FcγRIIIa-Afucosylated (human) (chain, as listed by the source): as above
Sequence of FcγRIIIa-158V, FcγRIIIa-HEK^WT (human) (chain, as listed by the source): as above

B1: IgG1-CHO^WT (anti-rabies human IgG1 mAb SO57 from the CHO wildtype clone) (antibody)
chain 1: QVQLVQSGAEVKKPGSSVKVSCKASGGTFNRYTVNWVRQAPGQGLEWMGGIIPIFGTANYAQRFQGRLTITADESTSTAYMELSSLRSDDTAVYFCARENLDNSGTYYYFSGWFDPWGQGTLVTVSS
chain 2: QSALTQPRSVSGSPGQSVTISCTGTSSDIGGYNFVSWYQQHPGKAPKLMIYDATKRPSGVPDRFSGSKSGNTASLTISGLQAEDEADYYCCSYAGDYTPGVVFGGGTKLTVL
modifications: N-glycan at Asn297: dominant G0F glycans with small amounts of G1F
Question: Which results are given for B1?
Answer: Kd [1]: 460 nM; Kd [2]: 440 nM; Kd [3]: 460 nM; Kd [4]: 240 nM; Kd [5]: 440 nM; Kd [6]: 490 nM; Kd [7]: 490 nM
